The target in the assay is human CCR8 (human) (UniProt P51685). Kind of assay: flow cytometry, hCCR8 transfected CHOK1 cells. (Flow cytometry measures light scatter and fluorescence of single cells or particles in a stream.)

Consider one molecule from patent US20260234276A1.

B1: 3-27 (antibody, V domains shown)
VH: EVKLVESGGGLVKSGGSLKLSCAASGFTFSSYAMSWVRQTPEKRLEWVASINSGGSIYYPDSVKGRFTISRDNARNILYLQMSSLRSEDTAMYYCARGFGAYWGQGTLVTVSA
VL: DIQMTQSPSSLSASLGERVTLTCRASQDIGSSLHWLQQEPDGTIKRLIYATSSLDSGVPKRFSGSRSGSDYSLTISSLESEDFVDYYCLQYATSPTFGGGTKLEIK
Consider B1, for which the % positive cells was found to be 42.5% and the MFI fold change to isotype ctrl is 2.76 fold.
